Test results from article doi:10.1101/2021.11.17.468963.

Molecular target: human glyceraldehyde 3-phosphate dehydrogenase (GAPDH) (human) (UniProt P04406)
Experiment: cryo-EM structure

Chain of human glyceraldehyde 3-phosphate dehydrogenase (GAPDH), P04406 1-335 (enzyme; other documents disagree on this pair) (P04406 whole entry): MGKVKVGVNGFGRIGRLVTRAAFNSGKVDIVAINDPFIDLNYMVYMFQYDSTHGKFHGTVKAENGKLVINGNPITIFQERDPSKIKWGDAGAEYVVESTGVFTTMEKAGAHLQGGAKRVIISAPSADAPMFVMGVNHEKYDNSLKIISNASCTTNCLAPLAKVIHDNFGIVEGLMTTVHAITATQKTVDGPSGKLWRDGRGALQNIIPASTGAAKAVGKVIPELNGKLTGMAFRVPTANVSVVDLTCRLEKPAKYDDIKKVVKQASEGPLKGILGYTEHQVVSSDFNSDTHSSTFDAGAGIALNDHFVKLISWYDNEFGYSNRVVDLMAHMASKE

“human glyceraldehyde 3-phosphate dehydrogenase (GAPDH), P04406 1-335 (enzyme; other documents disagree on this pair)” showed a stoichiometry N of 4.
